Laboratory results from patent CN107042091A.

Tests used:
Myc-GST融合蛋白 [1] = assay: ELISA, Myc-GST coated at 5 μg/mL, HRP anti-His second antibody, heat test at 70℃ for 30 min
Myc-GST融合蛋白 [2] = assay: ELISA, Myc-GST coated at 5 μg/mL, HRP anti-His second antibody, heat test at 80℃ for 30 min
Myc-GST融合蛋白 [3] = assay: ELISA, Myc-GST coated at 5 μg/mL, HRP anti-His second antibody, heat test at 90℃ for 30 min

- OD450 (Myc-GST融合蛋白 [1]): 1.4
- OD450 (Myc-GST融合蛋白 [2]): 1.3
- OD450 (Myc-GST融合蛋白 [3]): 1.1
B1: 抗c-Myc标签单域重链抗体 (VHH, not shown: small tags and cut ends)
VHH: QLQLVESGGGEVHPGGSLTLSCEVSGINPAYYAIGWFHQSPGKEREGVACISQGGAKTNYADSVKGRFTISRDSAKNTVYLHMNSLQSEDTGSYYCARRRGAYCTESNSAGDYASWGQGTQVTVST
